The results in this text go back to the DeepSol protein solubility set.

The series in a line: soluble on expression in E. coli; label from the status in PepcDB or PDB records.
In the case of “MSLDSLNLNKHISGQFNAELESIRTQVMTMGGMVEQQLSDAITAMHNQDSELAKRVVEGDHQVNMMEVAIDEACVRIIAKRQPTASDLRLVMAIIKTIAELERIGDVADKICRTALEKFSQQHQPLLVSLESLGRHTVQMLHDVLDAFARMDLDEAVRIYREDKKVDQEYEGIVRQLMTYMMEDSRTIPSVLTALFCARSIERIGDRCQNICEYIFYFVKGQDFRHVGGDELDKLLAGKDPKEGHHHHHH”, the “soluble on expression in E. coli” value was “soluble”.
In the case of “MSLDSQVLEHVLPSHFAKYDKGGDEFYDLISAFHKSVRGSAPDAALYWYCRILAGGGDPLYVARRLLAIATEDIGNADPRAMQVALNAWDIFQRVGPSEGERAIAQATLYLASAPKSNAVYTAFNQAKHDAAHLPSYPVPEHLRNAPTQIMKELGFGAQYRYAHDEVGAFAAGENYFPEILKTKHYYQPTDRGLEKQIKDKLDYLASQNNQSENKRYDEGHHHHHH”, the “soluble on expression in E. coli” value is on record as “soluble”.
The value for “MSLEAILPVPEEKQVDWQKMETYAFVHFGLNTFNDREWGYGDSEPKTFNPTKLDCEQWVKTFVESGMKGVILTAKHHDGFCLWPTQLTEYCIRNTPYKDGKGDIVGELAAACKKYGIKFAVYLSPWDRHQANYGTPEYVDYFHKQLTELMTNYGEVFEVWFDGANGGDGWYGGAKDSRTIDRKTYYNYPRIYEILDKLQPQAIVFSDGGPGCRWVGNENGFAGATNWSFLRAGEVYPGYPKYRELQYGHADGNQWVPAECDVSIRPGWFYHPEEDDRVKTVEQLTDLYYRSVGHNATLLLNFPVDRDGLIHPIDSANAVNFHKNVQKQLAHNLLAGIRPKASDERGGQFSAKAATDESWDTYWATNDGVTAADIEFDFPKTEKVNRMMIQEYIPLGQRVKSFIVEYDKDGKWLPVKLNEETTTVGYKRLLRFETVSTDKLRIRFTDARACLCINNIEAYYAGETADTFTVEAKELKSYPFTLVGVPEEETKKCMDKDKNTTAFVEGDALVIDLGEERTITSFHYLPDQSEYNKGLISSYELSVGTEANAVNRIVAQGEFSNIKNNPILQSVYFTPVKARYLSLKPTKMVTEGETMGFAEIGIQEGHHHHHH” was “soluble”.
Take “MSLEAKECKVQDILTENKKFIIPSYQRPYSWTVDNAEQLIDDIYKSSQSEENEYFIGSMICINKGQNQYEVVDGQQRLTTLSIIVSELKKIIPIQGIKDDLQKRVLPIDVYSDETDEPRLIVRKKEYDLYKYYILQDSKDYKPEKPSDTELVFISNAETIRDYLLRLSVDELKLLAKYILQNVYIVFVQTDDFASSFRLFNVLNSRGLPLSNADLLKNALFESASTHNKKSEQIESAWSQIEDMVGVRRLDKFLTLHKLSEKKDRDRVLQKGFEAFIENLQQQFDGDAIAMSLMLVNSAKNYTKILENDFEHSSIRRKIASLSNLGVDEWIPPVMAFMNRMARTEDFNLDDFSQFITAFEKVYMHGWLKKQIKSQREMVCYSALVAINNDMSFDSVINQINQHADNSGFIAALDEDLYEPRPNQVNLIKAILLRLDMEQQDESVIKTYTGRITIEHILPQALVNEYWINRFQPQEHVYWLHKIGNLTLISGSKNSEAQHYDFIKKKSIYEKLNSKSSFDLTKDVCNSSEWGLAELKMRHEKMKTQLKKLWLVEGHHHHHH”: the “soluble on expression in E. coli” value is on record as “soluble”.
The value for “MSLEARVLTGAALEARLDEVARLRIAVFRDWPYLYEGSMDYERSYLSTYRTSPGAILVGAFDGDRLVGASTGTPMEDHAEDFAAAFARTGLPLDEIFYCAESVLLPDYRGHGMGHRFFDLREAHARALGRRHSAFCSVIRPEDHPLRPAAARSNEPFWRKRGYAPLPGVVAHYGWTDVGEERETQKPLQFWIRDL” was “not soluble”; that for “MSLEDFAESEGGVKKKIPISLVTIRSAKLFDIPFIMRIEQASFREKYPRGLFLTFLESNPDTFLVAEYNGKVIGYVMGYLRPDMEGHIMSIAVDPNYRGNGIGKALMIAVINKLFKKGARWIGLEVRVSNVIAINLYKKLGFKITKRIYSYYSDGEDAFYMILTPEDWKRVNLEEGHHHHHH” was “soluble”.
The value for “MSLEGFIEDASVSLGLRNLYFNRDFRQPGAAQSKQEEWAQGFLLQAKSGYTQGTLGLGVELIGQLGLKLDSSPDRAGSGLLPRHADGRAADDYARLGVAPKLKLSNTELKLGELLPELPILLRNDGRLLPQTFQGGMLTSREIAGLTLHGGQMRSLSQRNSSDHQDLSVDGRGGAFSDRFDYLGAEYRFNAERSQVGLWQARLQDIYRQDYYSLSHKQSFGGWRLGASVGLFDTRDEGAAKLGELENRALTGFFSATRGGHSLGAGYQRMYGDDGMLYIAGTSTPLVNDIQVRNFTSAGERSWQLRYDYDFVALGIPGLTAMARYASGAHARTKAMDDGRAWERDVDVAYVIQSGPLKNLGLRWRNAMLRSNHAADVDENRLILSYSLPLLEGHHHHHH” was “soluble”; that for “MSLEGGKGPRLRDFLSGSLATWALGLAGLVGEAEDSEGEPLWLEKRFLRLSDGALLLRVLGIIAPSSRGGPRMLRGLDGPAAWRVWNLNHLWGRLRDFYQEELQLLILSPPPDLQTLGFDPLSEEAVEQLEGVLRLLLGASVQCEHRELFIRHIQGLSLEVQSELAAAIQEVTQPGAGVVLALSGPDPGELAPAELEMLSRSLMGTLSKLARERDLGAQRLAELLLEREPLCLRPEAPSREGHHHHHH” was “soluble”; that for “MSLEKHNEHKTLNHKSSKEKDQITNRLKRIEGQVRGIQNMVENDRYCVDILVQISAVQAAMKNVALHLLEDHAHHCVADAIKSGDGEQAISELLDVFKKFTKSEGHHHHHH” was “soluble”.
The value for “MSLEMNRYLSFTLFTGLSLLTTIPIEAYTLNPNKTATSILQTNVIEVRSITSVQPIVIYCPVGTVPQLPYQVWVTYSDGQGEYRQTKWSNSALSTEQSEADDKVYPIGSQYTINGFIIGDDTTENGYPITAKIEVVDTKNTISPKLIAHTIPLNNVKINGNNRLTSNRDLAIKEIISWDVSQQLYNYRDTYGLSTEGYTRSDGWDSPETKLKGHGSGHYMSALALAYAAATNPSHKEILRRNITRMVNELRECQERTFVWSEELGRYLEARDFAPEEELKKMKGTWEAFDEHKTKWATYGYGYLNAIPPHHPALIEMYRAYNNSDWVWAPYYSIHKQLAGLIDIATYMDDKSIADKALLIAKDMGLWVWNRMHYRTYVKKDGTQEERRTHPGNRYEMWNMYIAGEVGGMGESLARLSEMVSAPEEKARLIEASNCFDSPAFYEPLSKNIDDIRNRHANQHIPMIIGALRSYLSNNDTFYYHVSHNFWNLIQGRYRYSTGGVGNGEMFRQPYTQIVSMAMNGVSEGESHSNPHINETCCAYNLLKLTKDLNCLNPDDARYMDYYERTLYNQIIGSLHPEHHQTTYQYAVGLNASKPWGNETPQSTCCGGTGSENHVKYQEATYFVSDNTLWVALYMPTTLHWEEKNITLQQECLWPAKSSTIKVTAGEARFAMKLRVPYWATDGFDVKLNGISIATHYQPCSYAVIPTRQWKENDIVEITMPFTKHIDYGPDKLPAEIASKDGHQLETAWVGTLMHGPFAMTATDITNWTEATLNIDSRLASITVVEPNGPQTGTTGNLYTLMQGGRTFQPDYYRHDHTTHYFRINHIKDPTEGHHHHHH” was “soluble”.
For “MSLEPSVTGPSEAPVLDTAWMKAVPSVRPVPAGSAAEALEALAVKGRAADDSYERTAFGQAWLDVDRNGCDTRNDILRRDLAGVQFTEGSRCRVAGGEFHEPYTGAVVTFTRGAESSKAVQIDHVVALGDAWQKGAQQLTPQQRQSLANDPLNLVAADGPANQEKSASDAASWLPKNKTFRCHYVARQISVKAAYGLWVTQPEKDAMKRVLDSCPQQQTVMPREGHHHHHH”, the “soluble on expression in E. coli” value is reported as “soluble”.
Turning to “MSLEQNFIRLYQDSFREHWALPALTNYDTKESYTYGEMAADIARRHLLFERIGLKPGDKVALLGKDSAEWCMAFMSVITYGAIIVPVLPDFNAADAASIVTHSDAKYLFVSDKIWETMDPSQLLLLCGAVSIRDYTVFLDRTEGGLLSQEVEGLSRSFSEHYPSGFTAEDIRYAEVSNDDLILLNYTSGTTGFSKGVMLRANNLAGNVTYVKDRDIMFRGETILCFLPLAHTYSCAFNFLTPLTIGVHVYILGKIPSPLTLIKAFADVRPSFVIMVPLIIEKLYHKAIAPKIKTPLIKFLLRLPVLKKVIHKSIRSKLIESFGGNFRQIIIGGAALNDEVAHFLYRIGFPLTVGYGMTECGPLISYEDHSLWLPGSCGKSLSIMEVRIDHSGQERHSDSGDVGEIQVRGENVCLGYYKNAELTAELFTPDGWMRTGDLGTIDSLGNIFIKGRSKTMLLGSNGQNIYPEEIESKINNLSYVLESIVTERDGRLIALIVPDRQAIEHKGISPDQAWAYIERSRAELNGQVGAYEKITAFVRHDEEFEKTPKHSIKRFLYTEGHHHHHH”, the “soluble on expression in E. coli” value was “soluble”.
